Columns and labels:
[1] = test system: mouse primary hepatocytes; test: cellular apoB100 protein expression in primary mouse hepatocytes; assay type: cell-based; conditions: 50 ng/mL, 24 hours
Method: Primary Cells: Fresh wild-type rat and mouse primary heptaocytes were supplied by CellzDirect (Invitrogen, NC) in a 6-well collagen coated plate. Upon arrival, the storage media was removed and incubation media (Williams E Medium, phenol red free, with incubation supplement pack, Gibco, NC) was added according to manufactures' instructions. The cells were incubated at 37° C. with 5% CO2 for 16 hours prior to human resistin (50 ng/mL) treatment for 24 hours. Cryopreserved plateable human hepatocytes, metabolism qualified from multiple normal human donors, were supplied by CellzDirect (Invitrogen, NC). Upon arrival, the cells (4-8 million in 1 mL), according to the manufacturer's instruction, were added to 48 mL warmed thawing medium (CHRM® Medium, Invitrogen, NC) and centrifuged at 100×g for 10 min at room temperature. The pellet was re-suspended in 4 mL plating medium (Williams E Medium, phenol red free, with maintenance supplement pack and 10% FBS, Gibco, NC). The cells were stained by Trypan Blue (Sigma, Canada) and counted by a haemocytometer, followed by seeding 1×10^6 cells/well in a 6-well collagen coated plate (CellzDirect, Invitrogen, NC). The cells were incubated at 37° C. with 5% CO2 for 4 hours to allow the cells to adhere. The plating media was replaced and cell incubated for 16 hours prior to human resistin treatment for 24 hours. […]

HepG2 cells [2] = test: cell viability, tryphan blue staining; assay type: cell-based, human; conditions: 50 ng/mL or 100 ng/mL, 24 or 48 hours
Method: Cell viability was determined with 0.4% tryphan blue (Sigma-Aldrich, ON) staining and calculated using the following formula: % Cell Viability=(number of unstained (living) cells/Total number of cells)×100.
The next question was whether this amount of human resistin is toxic to hepatocytes. Tryphan blue staining of HepG2 cells upon 50 ng/mL of resistin treatment to determine cell viability was performed.

HepG2 cells [3] = test: electron microscopy of secreted VLDL fraction; assay type: cell-based, human; conditions: 50 ng/mL, 24 hours
Method: The VLDL lipoprotein fraction was isolated from HepG2 cell media via ultracentrifugation at density of 1.006 g/mL using a Beckman Optima TL ultracentrifuge and 100.4 TLA rotor (Beckman Coulter, Brea, Calif.). Mean particle size for VLDL was then determined using the Hitachi 7000 electron microscope equipped with a AMT XR-60 digital camera. The fixation process for electron microscopy utilized 1% Os04 in a phosphate buffer at pH 7.4 applied to the VLDL fraction for a 30 minute exposure. A small drop of this solution was placed on a 400 mesh copper grid coated with a carbon film and allowed to stand for 3 minutes or until sample has dried. The fixed VLDL were placed on the electron microscope grid for viewing and digitizing. The captured images were taken at 75 KV using a beam current of 25 uA. Digital Images of the VDL were taken at about 50,000×. The mean particle size was then determined by importing the digital images into NIH image J software.
The secretion of apoB protein by HepG2 cells increased markedly by approximately 8-fold with human resistin treatment, along with the observed increases in secreted VLDL lipids. […] Furthermore, the quantity of VLDL particles found in a representative […] area was increased markedly in resistin-treated samples by a mean of 10-fold.

[4] = test system: primary human hepatocytes; test: LDL receptor protein in primary human hepatocytes; assay type: cell-based; conditions: 50 ng/mL, 24 hours
Method: Cryopreserved plateable human hepatocytes, metabolism qualified from multiple normal human donors, were obtained from CellzDirect (Invitrogen, NC). The cells were seeded at 1×10^6 cells/well in a 6-well collagen coated plate according to the manufacturer's instructions (CellzDirect, Invitrogen, NC). The cells were incubated at 37° C. with 5% CO2 for 4 hours to allow the cells to adhere. The plating media was replaced and the cells incubated for 16 hours prior to human resistin 50 ng/mL treatment for 24 hours.
To determine if the above findings in immortalized HepG2 cells are relevant to humans, primary human hepatocytes […] (Invitrogen) were treated with human resistin at the optimum 50 ng/mL dose for 24 hours. […] While the magnitude of the inhibitory effect of human resistin on LDL receptor protein expression was not as large as with HepG2 cells, this was expected as primary hepatocytes are not as metabolically active as cultured hepatoma HepG2 hepatocytes.

B1: human resistin: recombinant lyophilized purified human resistin (Calbiochem); cysteine-rich cytokine, single 12 kDa band (protein)
chain: KTLCSMEEAINERIQEVAGSLIFRAISSIGLECQSVTSRGDLATCPRGFAVTGCTCGSACGSWDVRAETTCHCQCAGMDWTGARCCRVQP
- increase in cellular apoB protein expression versus untreated control cells [1]: 40-50%
- hepatocyte viability (HepG2 cells [2]): no marked reduction
- increase in quantity of VLDL particles in a representative 100 cm^2 area (HepG2 cells [3]): 10 fold
- LDL receptor protein versus untreated control cells [4]: significantly reduced
